pKd data for four molecules are collected here from publication PMC9482650, “Quantitative fragmentomics allow affinity mapping of interactomes” (Nature Communications, 2022).

Targets include DLG1_2, Q12959; DLG4_2, P78352; FRMPD2_2, Q68DX3; FRMPD3, Q5JV73; HTRA1, Q92743; Inadl_3, Q8NI35; LNX1_2, Q8TBB1; MAST2, Q6P0Q8; PTPN3, P26045; SCRIB_2, Q14160; SNX27, Q96L92.
Test in all cases: holdup assay
Common to all, as to design: key: below the threshold = too weak to quantify, mostly under pKd 3.1 to 4
Holding throughout (settings): plain residues with an end cap or a label only (N-terminal biotin on a linker: ado-ado)

The target in a further assay is T1, DFNB31_1, Q9P202.
T1 sequence (Q9P202 135-233, limits assumed, looked up): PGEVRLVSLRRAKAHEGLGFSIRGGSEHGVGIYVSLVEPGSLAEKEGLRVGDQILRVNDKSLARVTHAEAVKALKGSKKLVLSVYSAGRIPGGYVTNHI

In a further assay the target is T2, FRMPD1, Q5SYB0.
T2 sequence (Q5SYB0 52-145, limits assumed, looked up): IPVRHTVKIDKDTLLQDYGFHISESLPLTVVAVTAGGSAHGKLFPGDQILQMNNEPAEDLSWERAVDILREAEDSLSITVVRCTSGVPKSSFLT

A further assay has as its target T3, LIN7A, O14910.
T3 sequence (O14910 103-200, limits assumed, looked up): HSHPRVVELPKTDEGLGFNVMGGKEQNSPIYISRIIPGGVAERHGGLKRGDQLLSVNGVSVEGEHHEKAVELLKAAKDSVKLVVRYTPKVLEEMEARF

Another assay concerns the target T4, LIN7B, Q9HAP6.
T4 sequence (Q9HAP6 88-185, limits assumed, looked up): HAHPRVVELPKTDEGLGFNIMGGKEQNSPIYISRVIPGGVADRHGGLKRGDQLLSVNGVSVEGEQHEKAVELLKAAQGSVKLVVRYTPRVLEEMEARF

The target of the next assay is T5, LNX2_2, Q8N448.
T5 sequence (Q8N448 334-432, limits assumed, looked up): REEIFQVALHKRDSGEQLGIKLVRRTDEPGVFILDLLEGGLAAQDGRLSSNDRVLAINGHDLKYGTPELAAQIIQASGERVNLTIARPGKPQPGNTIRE

A further assay has as its target T6, MPDZ_10, O75970.
T6 sequence (O75970 1624-1722, limits assumed, looked up): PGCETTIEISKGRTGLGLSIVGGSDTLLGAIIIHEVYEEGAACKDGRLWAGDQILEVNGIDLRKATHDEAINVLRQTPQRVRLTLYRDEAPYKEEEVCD

Another assay concerns the target T7, NHERF3_4, Q5T2W1.
T7 sequence (Q5T2W1 373-468, limits assumed, looked up): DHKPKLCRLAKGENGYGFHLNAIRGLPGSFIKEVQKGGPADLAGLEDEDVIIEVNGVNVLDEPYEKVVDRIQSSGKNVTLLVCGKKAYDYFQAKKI

The target of a further assay is T8, PDZD7_3, Q9H5P4.
T8 sequence (Q9H5P4 857-944, limits assumed, looked up): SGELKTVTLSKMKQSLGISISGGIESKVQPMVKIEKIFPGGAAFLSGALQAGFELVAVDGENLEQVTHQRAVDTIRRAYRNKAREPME

The target of a further assay is T9, PDZRN3_1, Q9UPQ7.
T9 sequence (Q9UPQ7 244-349, limits assumed, looked up): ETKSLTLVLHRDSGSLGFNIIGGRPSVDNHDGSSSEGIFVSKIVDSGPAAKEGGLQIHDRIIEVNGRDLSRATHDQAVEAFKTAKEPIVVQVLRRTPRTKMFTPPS

In a further assay the target is T10, RAPGEF6, Q8TEU7.
T10 sequence (Q8TEU7 525-625, limits assumed, looked up): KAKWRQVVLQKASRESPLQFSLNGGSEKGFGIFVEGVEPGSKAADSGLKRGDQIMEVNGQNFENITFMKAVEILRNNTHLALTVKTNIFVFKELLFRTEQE

The target of a further assay is T11, SIPA1L2, Q9P2F8.
T11 sequence (Q9P2F8 945-1036, limits assumed, looked up): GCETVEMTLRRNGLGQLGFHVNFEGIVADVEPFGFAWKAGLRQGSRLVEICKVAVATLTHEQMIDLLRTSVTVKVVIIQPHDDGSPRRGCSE

For the next assay, the target named is T12, SYNJ2BP, P57105.
T12 sequence (P57105 8-110, limits assumed, looked up): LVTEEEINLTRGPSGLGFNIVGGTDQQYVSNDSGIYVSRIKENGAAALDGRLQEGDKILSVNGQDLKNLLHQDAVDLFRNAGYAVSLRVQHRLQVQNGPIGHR

The target of the next assay is T13, TIAM2, Q8IVF5.
T13 sequence (Q8IVF5 885-986, limits assumed, looked up): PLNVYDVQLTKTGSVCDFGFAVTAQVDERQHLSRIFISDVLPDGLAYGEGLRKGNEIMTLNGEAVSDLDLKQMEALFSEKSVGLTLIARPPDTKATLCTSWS

As a reminder, the pKd is the Kd on a negative log10 scale, so that one unit is a factor of ten.

Chain of DLG1_2, Q12959 (Q12959 314-412): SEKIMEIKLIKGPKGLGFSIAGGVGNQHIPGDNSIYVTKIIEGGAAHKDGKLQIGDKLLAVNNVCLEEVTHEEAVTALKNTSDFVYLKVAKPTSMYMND
Chain of MAST2, Q6P0Q8 (Q6P0Q8 1099-1202): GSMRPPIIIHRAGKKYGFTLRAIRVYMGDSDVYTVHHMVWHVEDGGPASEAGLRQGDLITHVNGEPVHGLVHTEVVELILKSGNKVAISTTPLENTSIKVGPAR
Chain of FRMPD3, Q5JV73 (Q5JV73 12-100): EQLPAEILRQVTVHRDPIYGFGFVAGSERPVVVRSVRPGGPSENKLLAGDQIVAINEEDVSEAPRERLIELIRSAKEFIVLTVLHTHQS
Chain of LNX1_2, Q8TBB1 (Q8TBB1 371-470): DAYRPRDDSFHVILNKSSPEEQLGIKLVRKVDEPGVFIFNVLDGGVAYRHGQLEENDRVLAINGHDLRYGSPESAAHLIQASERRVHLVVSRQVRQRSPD
Chain of SCRIB_2, Q14160 (Q14160 857-960): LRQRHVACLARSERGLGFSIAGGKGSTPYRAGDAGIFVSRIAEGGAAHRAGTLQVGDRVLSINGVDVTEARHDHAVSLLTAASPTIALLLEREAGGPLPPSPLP
Chain of HTRA1, Q92743 (Q92743 360-477): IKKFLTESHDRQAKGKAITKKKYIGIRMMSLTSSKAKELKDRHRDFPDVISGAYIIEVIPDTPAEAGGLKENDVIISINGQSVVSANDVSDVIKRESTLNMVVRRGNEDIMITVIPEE
Chain of FRMPD2_2, Q68DX3 (Q68DX3 944-1038): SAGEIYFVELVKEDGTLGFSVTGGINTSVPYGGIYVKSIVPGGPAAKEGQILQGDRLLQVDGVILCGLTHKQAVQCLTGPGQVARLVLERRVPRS
Chain of DLG4_2, P78352 (P78352 155-259): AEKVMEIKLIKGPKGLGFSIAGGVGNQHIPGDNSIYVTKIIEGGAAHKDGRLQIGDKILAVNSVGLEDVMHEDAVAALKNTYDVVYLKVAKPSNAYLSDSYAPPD
Chain of PTPN3, P26045 (P26045 505-587): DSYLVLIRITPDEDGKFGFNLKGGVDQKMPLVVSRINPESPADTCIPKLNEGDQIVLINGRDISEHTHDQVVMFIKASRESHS
Chain of Inadl_3, Q8NI35 (Q8NI35 359-469): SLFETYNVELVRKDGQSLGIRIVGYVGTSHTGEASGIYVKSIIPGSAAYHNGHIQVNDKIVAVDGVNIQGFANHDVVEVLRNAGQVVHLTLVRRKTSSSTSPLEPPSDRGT

Turning to PAPGQHTTQI [STK16, O75716], the negative logarithm of the Kd (pKd) was 4.57 with DFNB31_1, Q9P202; 3.73 with DLG1_2, Q12959; 3.87 in the assay with DLG4_2, P78352; “below the threshold” with FRMPD1, Q5SYB0; 3.48 in the assay with FRMPD2_2, Q68DX3; “below the threshold” with FRMPD3, Q5JV73. Moreover, the pKd entry with HTRA1, Q92743 is “below the threshold”; with Inadl_3, Q8NI35, “below the threshold”; with LIN7A, O14910, “below the threshold”; with LIN7B, Q9HAP6, 3.92; in the assay with LNX1_2, Q8TBB1, “below the threshold”; with LNX2_2, Q8N448, “below the threshold”. Also, the negative logarithm of the Kd (pKd) with MAST2, Q6P0Q8 was 5.27; with MPDZ_10, O75970, “below the threshold”; in the assay with NHERF3_4, Q5T2W1, “below the threshold”; in the assay with PDZD7_3, Q9H5P4, 5; with PDZRN3_1, Q9UPQ7 it was “below the threshold”; with PTPN3, P26045, 4.21. Moreover, the pKd in the assay with RAPGEF6, Q8TEU7 is 3.49; with SCRIB_2, Q14160 it was “below the threshold”; in the assay with SIPA1L2, Q9P2F8 it was “below the threshold”; in the assay with SNX27, Q96L92 it was 4.27; with SYNJ2BP, P57105, 3.51; with TIAM2, Q8IVF5 it was 3.97.

For QSPPNIYYKV [EFNB3, Q15768], the pKd in the assay with DFNB31_1, Q9P202 was 3.55; with DLG1_2, Q12959, “below the threshold”; in the assay with DLG4_2, P78352, 3.54; in the assay with FRMPD1, Q5SYB0 it was “below the threshold”; with FRMPD2_2, Q68DX3, “below the threshold”; with FRMPD3, Q5JV73, “below the threshold”. For the same molecule, the pKd in the assay with HTRA1, Q92743 was 4.49; in the assay with Inadl_3, Q8NI35, 3.5; in the assay with LIN7A, O14910 it was “below the threshold”; with LIN7B, Q9HAP6 it was “below the threshold”; with LNX1_2, Q8TBB1, 3.74; in the assay with LNX2_2, Q8N448 it was 4.27. For the same molecule, the negative-log Kd (pKd) with MAST2, Q6P0Q8 was 4.54; with MPDZ_10, O75970, “below the threshold”; with NHERF3_4, Q5T2W1 it was 3.54; with PDZD7_3, Q9H5P4, “below the threshold”; in the assay with PDZRN3_1, Q9UPQ7, “below the threshold”; with PTPN3, P26045, 4.05. Further, the negative logarithm of the Kd (pKd) entry with RAPGEF6, Q8TEU7 was “below the threshold”; with SCRIB_2, Q14160, “below the threshold”; with SIPA1L2, Q9P2F8, “below the threshold”; with SNX27, Q96L92 it was 3.89; in the assay with SYNJ2BP, P57105 it was “below the threshold”; in the assay with TIAM2, Q8IVF5, 4.01.

With ETSLVKGIDI [DENND5A, Q6IQ26], the negative logarithm of the Kd (pKd) result with DFNB31_1, Q9P202 was “below the threshold”; with DLG1_2, Q12959, “below the threshold”; with DLG4_2, P78352, “below the threshold”; with FRMPD1, Q5SYB0, “below the threshold”; in the assay with FRMPD2_2, Q68DX3, “below the threshold”; with FRMPD3, Q5JV73, “below the threshold”. The pKd was 3.6 with HTRA1, Q92743; 3.53 with Inadl_3, Q8NI35; “below the threshold” with LIN7A, O14910; “below the threshold” with LIN7B, Q9HAP6; “below the threshold” with LNX1_2, Q8TBB1; 4.13 in the assay with LNX2_2, Q8N448. The pKd result in the assay with MAST2, Q6P0Q8 is listed as “below the threshold”; with MPDZ_10, O75970 it was “below the threshold”; with NHERF3_4, Q5T2W1, “below the threshold”; with PDZD7_3, Q9H5P4 it was “below the threshold”; with PDZRN3_1, Q9UPQ7 it was “below the threshold”; in the assay with PTPN3, P26045 it was “below the threshold”. For the same molecule, the pKd result in the assay with RAPGEF6, Q8TEU7 is listed as “below the threshold”; in the assay with SCRIB_2, Q14160, “below the threshold”; in the assay with SIPA1L2, Q9P2F8, “below the threshold”; with SNX27, Q96L92, “below the threshold”; with SYNJ2BP, P57105, “below the threshold”; in the assay with TIAM2, Q8IVF5, “below the threshold”.

In the case of NASRTRITFV [MCM7, P33993], the pKd entry with DFNB31_1, Q9P202 is “below the threshold”; in the assay with DLG1_2, Q12959 it was 5.28; with DLG4_2, P78352 it was 5.12; with FRMPD1, Q5SYB0 it was “below the threshold”; with FRMPD2_2, Q68DX3, 5.11; with FRMPD3, Q5JV73, “below the threshold”. Further, the negative logarithm of the Kd (pKd) is 4.99 with HTRA1, Q92743; “below the threshold” with Inadl_3, Q8NI35; “below the threshold” with LIN7A, O14910; 3.9 in the assay with LIN7B, Q9HAP6; 4.06 with LNX1_2, Q8TBB1; 5.43 in the assay with LNX2_2, Q8N448. Also, the pKd with MAST2, Q6P0Q8 came out at 4.99; with MPDZ_10, O75970 it was 4.29; with NHERF3_4, Q5T2W1 it was 3.53; in the assay with PDZD7_3, Q9H5P4, 5.26; with PDZRN3_1, Q9UPQ7 it was 3.89; with PTPN3, P26045, 4.71. Besides, the negative-log Kd (pKd) entry with RAPGEF6, Q8TEU7 is “below the threshold”; with SCRIB_2, Q14160, “below the threshold”; with SIPA1L2, Q9P2F8, “below the threshold”; with SNX27, Q96L92 it was 4.85; with SYNJ2BP, P57105, 4.44; with TIAM2, Q8IVF5, 4.06.
